{"source": "paper PMC8668987", "about": "(The Journal of Biological Chemistry, 2021)", "binders": {"B1": {"name": "endogenous Sox2 of mouse E14 ES cells (natural protein)", "chain": "not shown"}}, "key": {"[1]": {"target": "endogenous SRC-3 of mouse E14 ES cells (mouse (endogenous in E14 ES cells), UniProt O09000 1-1398)", "sequence (O09000 whole entry)": "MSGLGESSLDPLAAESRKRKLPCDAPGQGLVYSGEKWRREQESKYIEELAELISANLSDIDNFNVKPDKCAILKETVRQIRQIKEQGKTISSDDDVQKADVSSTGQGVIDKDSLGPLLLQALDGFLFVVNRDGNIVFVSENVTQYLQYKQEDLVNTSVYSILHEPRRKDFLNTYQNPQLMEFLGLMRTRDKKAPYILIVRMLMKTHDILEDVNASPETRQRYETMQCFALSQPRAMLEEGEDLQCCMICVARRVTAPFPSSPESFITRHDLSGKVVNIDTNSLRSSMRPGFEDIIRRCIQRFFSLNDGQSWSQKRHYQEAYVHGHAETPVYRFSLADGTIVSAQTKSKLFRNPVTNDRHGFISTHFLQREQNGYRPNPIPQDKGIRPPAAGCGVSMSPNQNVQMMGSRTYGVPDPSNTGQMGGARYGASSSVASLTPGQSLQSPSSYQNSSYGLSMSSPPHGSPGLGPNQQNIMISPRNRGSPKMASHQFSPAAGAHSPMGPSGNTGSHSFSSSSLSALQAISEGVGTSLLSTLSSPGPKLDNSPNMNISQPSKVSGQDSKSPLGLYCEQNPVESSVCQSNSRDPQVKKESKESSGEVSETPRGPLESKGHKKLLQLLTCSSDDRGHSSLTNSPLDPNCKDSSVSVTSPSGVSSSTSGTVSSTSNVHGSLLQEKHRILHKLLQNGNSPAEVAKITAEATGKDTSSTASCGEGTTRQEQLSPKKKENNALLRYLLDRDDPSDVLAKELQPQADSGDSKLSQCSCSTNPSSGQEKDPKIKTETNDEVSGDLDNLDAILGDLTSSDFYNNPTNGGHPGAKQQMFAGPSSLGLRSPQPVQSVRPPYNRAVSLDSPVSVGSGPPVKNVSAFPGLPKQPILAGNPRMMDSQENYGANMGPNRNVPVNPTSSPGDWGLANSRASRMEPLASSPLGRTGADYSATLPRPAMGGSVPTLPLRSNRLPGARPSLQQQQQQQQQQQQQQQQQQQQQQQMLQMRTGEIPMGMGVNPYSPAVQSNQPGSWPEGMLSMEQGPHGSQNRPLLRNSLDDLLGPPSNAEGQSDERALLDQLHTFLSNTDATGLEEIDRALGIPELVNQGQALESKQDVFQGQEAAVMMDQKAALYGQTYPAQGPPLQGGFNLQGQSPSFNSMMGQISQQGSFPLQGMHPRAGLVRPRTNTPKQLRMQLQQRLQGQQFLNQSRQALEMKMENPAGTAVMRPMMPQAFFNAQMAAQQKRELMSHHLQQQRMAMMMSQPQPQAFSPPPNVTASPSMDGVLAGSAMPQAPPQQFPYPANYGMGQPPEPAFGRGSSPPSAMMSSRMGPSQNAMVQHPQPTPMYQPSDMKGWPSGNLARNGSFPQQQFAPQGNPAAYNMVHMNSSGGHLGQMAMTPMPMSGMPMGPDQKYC", "experiment": "co-IP"}, "[2]": {"target": "endogenous SRC-2 of mouse E14 ES cells (mouse (endogenous in E14 ES cells), UniProt Q61026 1-1462)", "sequence (Q61026 whole entry)": "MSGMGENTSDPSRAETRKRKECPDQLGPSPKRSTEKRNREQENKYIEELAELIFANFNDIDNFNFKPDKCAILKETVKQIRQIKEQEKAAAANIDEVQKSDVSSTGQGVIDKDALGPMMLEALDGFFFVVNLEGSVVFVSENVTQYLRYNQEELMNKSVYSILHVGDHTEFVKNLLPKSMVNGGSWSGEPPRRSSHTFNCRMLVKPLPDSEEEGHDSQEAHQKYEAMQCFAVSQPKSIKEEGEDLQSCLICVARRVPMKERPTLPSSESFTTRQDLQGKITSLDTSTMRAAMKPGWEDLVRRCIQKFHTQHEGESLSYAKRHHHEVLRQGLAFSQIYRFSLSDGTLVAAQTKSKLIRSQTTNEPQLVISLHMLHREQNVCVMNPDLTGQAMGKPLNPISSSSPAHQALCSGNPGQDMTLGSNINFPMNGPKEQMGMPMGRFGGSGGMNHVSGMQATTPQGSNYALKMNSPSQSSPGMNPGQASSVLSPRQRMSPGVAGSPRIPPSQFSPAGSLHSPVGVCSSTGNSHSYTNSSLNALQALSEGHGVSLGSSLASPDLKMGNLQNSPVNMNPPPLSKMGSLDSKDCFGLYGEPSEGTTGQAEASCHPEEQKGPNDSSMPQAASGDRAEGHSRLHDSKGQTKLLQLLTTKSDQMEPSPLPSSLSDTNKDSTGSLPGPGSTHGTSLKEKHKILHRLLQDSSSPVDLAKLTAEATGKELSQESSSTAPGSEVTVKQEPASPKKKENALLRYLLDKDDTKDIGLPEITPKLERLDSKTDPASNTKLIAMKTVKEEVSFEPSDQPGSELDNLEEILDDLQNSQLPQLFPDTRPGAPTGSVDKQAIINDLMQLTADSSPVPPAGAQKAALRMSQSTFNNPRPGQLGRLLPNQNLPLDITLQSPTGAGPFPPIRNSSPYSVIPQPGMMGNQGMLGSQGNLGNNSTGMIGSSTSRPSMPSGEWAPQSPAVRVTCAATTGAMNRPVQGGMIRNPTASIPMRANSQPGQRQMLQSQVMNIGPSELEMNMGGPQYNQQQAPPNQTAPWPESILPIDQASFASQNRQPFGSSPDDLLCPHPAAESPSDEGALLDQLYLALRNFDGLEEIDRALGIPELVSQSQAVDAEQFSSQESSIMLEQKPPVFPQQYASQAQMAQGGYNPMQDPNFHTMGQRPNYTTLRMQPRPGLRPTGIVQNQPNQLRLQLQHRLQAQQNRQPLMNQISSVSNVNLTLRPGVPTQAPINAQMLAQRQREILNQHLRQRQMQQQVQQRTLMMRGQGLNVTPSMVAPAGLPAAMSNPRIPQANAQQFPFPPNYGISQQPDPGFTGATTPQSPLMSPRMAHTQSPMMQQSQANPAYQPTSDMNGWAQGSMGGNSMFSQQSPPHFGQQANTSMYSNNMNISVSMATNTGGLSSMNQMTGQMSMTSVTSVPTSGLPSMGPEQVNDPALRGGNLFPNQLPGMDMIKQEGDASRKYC", "experiment": "co-IP"}}, "data": [{"binder": "B1", "values": [{"measurement": "fold change of co-precipitated Sox2, TSA plus NAM against untreated cells", "setting": "[1]", "result": 7.53, "unit": "fold"}, {"measurement": "fold change of co-precipitated Sox2, TSA plus NAM against untreated cells", "setting": "[2]", "result": 4.08, "unit": "fold"}]}]}
